From publication PMC4561730 (Molecular and Cellular Biology, 2015) come the findings set out here.

This series deals with the molecule itself. Put plainly: negative-staining electron microscopy.

B1: recombinant glutathione S-transferase (GST)-SAM protein (GST fusion of the mouse Bicc1 SAM domain) (domain or fragment, UniProt Q99MQ1 875-938, looked up)
chain: FKGSDLPELFSKLGLGKYTDVFQQQEIDLQTFLTLTDQDLKELGITTFGARRKMLLAISELSKN
One may read the stoichiometry N as a count of units in the complex or per binding partner. B1: the “stoichiometry N” value was around 40 units.
